Results: the DeepSol protein solubility set

Test: soluble on expression in E. coli; label from the status in PepcDB or PDB records

Row | Sequence | soluble on expression in E. coli
1 | MGSDKIHHHHHHMILKHRRPNIYGLMNKEGNKEEVEMIINELLNRDYKITFLPSGSSAVFLSMWIAKIYSNEISIPDMGGWQGFLKFPKLLNLKNNMIETNLGIIDLEKLDESLKENSSLILTSLAGYLAPQPLKEIKKLCEEREVLFIEDISGKIGGDCGYGDIVVCSTGTPKILNCEYGGFLGISKEIEEKLGNALNDIKILSKTYKTINYFGLLKEELLNAKKTYKKYVEASKIIKDEIENAYFREFEGISVFIECDNPKNISKKINSLIKLDNRKSITTICPNYDRILKNGIVFETKKIDISELNREVINEIIIALSSIL | not soluble
2 | MFITFEGIDGSGKSTQIQLLAQYLEKRGKKVILKREPGGTETGEKIRKILLEEEVTPKAELFLFLASRNLLVTEIKQYLSEGYAVLLDRYTDSSVAYQGFGRNLGKEIVEELNDFATDGLIPDLTFYIDVDVETALKRKGELNRFEKREFLERVREGYLVLAREHPERIVVLDGKRSIEEIHRDVVREVKRRWKLDV | soluble
3 | MPPPGIPPPFPPMGLPPMSQRPPAIPPMPPGILPPMLPPMGAPPPLTQIPGMVPPMMPGMLMPAVPVTAATAPGADTASSAVAGTGPPRALWSEHVAPDGRIYYYNADDKQSVWEKPSVLKSKAELLLSQCPWKEYKSDTGKPYYYNNQSKESRWTRPKDLDDLEVLVKQEAAGKQQQQLPQTLQPQPPQPQPDPPPVPPGPTPVPTGLLEPEPGGSEDCDVLEATQPLEQGFLQQLEEGPSSSGQHQPQQEEEESKPEPERSGLSWSNREKAKQAFKELLRDKAVPSNASWEQAMKMVVTDPRYSALPKLSEKKQAFNAYKAQREKEEKEEARLRAKEAKQTLQHFLEQHERMTSTTRYRRAEQTFGELEVWAVVPERDRKEVYDDVLFFLAKKEKEQAKQLRRRNIQALKSILDGMSSVNFQTTWSQAQQYLMDNPSFAQDHQLQNMDKEDALICFEEHIRALEREEEEERERARLRERRQQRKNREAFQTFLDELHETGQLHSMSTWMELYPAVSTDVRFANMLGQPGSTPLDLFKFYVEELKARFHDEKKIIKDILKVNTAFEDFAHVISFDKRAAALDAGNIKLTFNSLLEKAEAREREREKEEARRMRRREAAFRSMLRQAVPALELGTAWEEVRERFVCDSAFEQITLESERIRLFREFLQVLEQTECQHLHTKGRKHGRKGKKHHHKRSHSPSGSESEEEELPPPSLRPPKRRRRNPSESGSEPSSSLDSVESGGAALGGRGSPSSHLLGADHGLRKAKKPKKKTKKRRHKSNSPESETDPEEKAGKESDEKEQEQDKDRELQQAELPNRSPGFGIKKEKTGWDTSESELSEGELERRRRTLLQQLDDHQ | soluble
4 | MSRLPTTPCEQLKLDNQLCFALYSTSLQMTKVYKPLLQALGLTYPQYIAMLVLWERDGLTVGEISARMLTDPGSLTPLLKRLEGEGLITRTRSSEDERVVLLRLTDKGRALQRQAESIPACILESTGLDLPQLVALKDELLALRGNLQAPD | not soluble
5 | MSKLFGNKSQRDLKEVKPFVDKIKVAYGEIERLSDDDLRGRTAILRQKIQDYVKDERAEIDKLKVEVEGKDLDEREEIWAQVDKLEKEILDKMEVVLDEILPEAFAIIKDTARRFAQNETIRVKATDLDRDLAINHDFVSIEGDTAVYQNHWVAGGNEILW | not soluble
6 | AHHHHHHGSKDDIVESVETLVRKGMIEEAIKIVENLQENFDKVIALCKIAELTRDESFLEDAIYFLKKIKDHDNKAIGYGEVAKVYALLGYEEESLELFEEAVKLTKNLNPVDKAITLTILANRLALAGFVDLSLEMFQNAFAEIIELNIELTKKTDLIIQLAEILEASGDALDSENALKFYEMAQDIYKNLKLGQREGIIEKKIELTRTLMHTSYPDIRKLAYEGRFIQALHEIEKRFGGNNVIPLLELTAWAYKTNVFERLKLKEITMEKLSASKLSDEEKFKVVQLLLEIDDTLKAYEIAITLESQELREKALVLIGLKMIDEGEVRFVEEKIFPLLSDEKREEFINFLKNLPIA | soluble
7 | MRAFSFRPFFLQALVVMPEYVNWLRHASPYINAHRDCTFVVMLPGDGVAHPNFGNIVHDLVLLHSLGVRLVLVHGSRPQIESRLAQRGITPRYHRDMRITDTETLECVIDAVGQLRISIEARLSMDMAASPMQGSRLRVTSGNVVTARPIGVLEGIDYQHTGEVRRVDRKGINRLLDERHIVLLSPLGYSPTGEIFNLACEDVATRAAIDLAADKLLLFGAETGLLDEQGRLVRELRPQQVPAHLQRLGGNYQAELLDAAAEACRGGVARSHIVSYAEDGALLTELFTRDGGGTLVAQEQFELVREAAIEDVGGLMDLITPLEEQGILVRRSREVLEREITQFSVVEREGLIIACAALYPIADSESGELACLAVNPEYRHGGRGDELLERIENRARALGIKTLFVLTTRTAHWFRERGFEPSSVDRLPSARASLYNFQRNSKIFEKAI | not soluble
8 | MSLTVWKTLEKTNHSQSEILSQLIEESDAIVVGIGAGMSAADGFTYIGPRFEEAFPDFIAKYQLLDMLQASLYDFEDWEEYWAFQSRFVALNYLDQPVGQAYLDLKDILAKKEYHIITTNADNAFAVADYNLEKVFHIQGEYGLWQCSQHCHQQTYRNDQAIRQMIAQQKDMKIPSNLIPKCPKCDQPFEINKRNEEKGMVEDADFHAQRQRYENFLSQHQNDKVLYLEIGVGHTTPQFIKHPFWRFVSLNENSLFVTLNHKHYRIPQKIRSRSVQLTQHIAELIAEAKKEIIGEGHHHHHH | soluble
9 | MRGSHHHHHHGSNSLSEANTKFMFDLFQQFRKSKENNIFYSPISITSALGMVLLGAKDNTAQQIKKVLHFDQVTENTTGKAATYHVDRSGNVHHQFQKLLTEFNKSTDAYELKIANKLFGEKTYLFLQEYLDAIKKFYQTSVESVDFANAPEESRKKINSWVESQTNEKIKNLIPEGNIGSNTTLVLVNAIYFKGQWEKKFNKEDTKEEKFWPNKNTYKSIQMMRQYTSFHFASLEDVQAKVLEIPYKGKDLSMIVLLPNEIDGLQKLEEKLTAEKLMEWTSLQNMRETRVDLHLPRFKVEESYDLKDTLRTMGMVDIFNGDADLSGMTGSRGLVLSGVLHKAFVEVTEEGAEAAAATAVVGFGSSPTSTNEEFHCNHPFLFFIRQNKTNSILFYGRFSSP | soluble
10 | MECRLGCGACCIAPSITSFIPGMPNGKPAGVRCVQLNEENLCKLFGKAERPKVCHQFSACPDVCGSTSEQAIQTITELESMTLLEHHHHHH | not soluble
11 | MSLGAKKEGFQTMVITDNKRENFYKNFSFIDNIYAYASLDEAVSIINGIKDYGILIPHGSLVEYLGKERVDKIETKIFGNKKIFEWEADQKKKMELLRKSNIKIPEIFERPEDVDRLVIVKLNGAKGGKGYFLARNKSEVKEGIQKLIESKMIRDENEVIIQEYVVGVPMYFQFFYSDIINRTEIFGIDIRYETNIDGLRRLPFEYMKELKINPTFVVVGNIPAVARESLLPVALEYANNFVRTTKELVPPGMIGPFCLESIITDNSDIVVFEFSGRIVAGTNLYVNGSPYSWLYWDEPMSIGRRIAREIRVANEKDKLSLVVSEGHHHHHH | not soluble
12 | MGEQPIFTTRAHVFQIDPNTKKNWMPASKQAVTVSYFYDVTRNSYRIISVDGAKVIINSTITPNMTFTKTSQKFGQWADSRANTVFGLGFSSEQQLTKFAEKFQEVKEAAKIAKDKTQEKIETSSNHSQASSVNGTDDEKASHAGPANTHLKSENDKLKIALTQSAANVKKWEIELQTLRESNARLTTALQESAASVEQWKRQFSICRDENDRLRNKIDELEEQCSEINREKEKNTQLKRRIEELEAELREKETELKDLRKQSEIIPQLMSECEYVSEKLEAAERDNQNLEDKVRSLKTDIEESKYRQRHLKVELKSFLEVLDGKIDDLHDFRRGLSKLGTDN | not soluble
13 | MMGSAYWEKLVPQINPPKVPSAVEGLGIPASVVENLVLKHLAAYPKCDLVELTQRLCVVSNIVELALAQLRKRSWVEVYQPASDKLSHSYSNVRYSLTEFGLAEADIAYRKDPYIGPVPVSLEDYWTVVEGQDLRKNPIMRADVERALSDVFGSEHLIPVLGPAINSGRAMLLYGHAGTGKSYVAAR | not soluble
